Target: Aβ42-T7n (UniProt P00573+P05067)
Conditions: clonal SP encoding the sequence
Text: Therefore, we turned to a split-T7 RNA polymerase (T7 RNAP) reporter used to evolve proteins with improved soluble expression.^33 In our new selection, host E. coli express an aggregation-prone protein (APP) fused to the N-terminal half of split-T7 RNAP (T7n). When the APP-T7n fusion is translated, it misfolds due to the APP, preventing T7n from associating with the C-terminal half of split-T7 RNAP (T7c; FIG. 2A). If a SP-encoded inhibitor binds to and prevents APP aggregation, the fused T7n will remain folded and join with T7c to produce full-length T7 RNAP. The reconstituted T7 RNAP then transcribes gIII, which we place under control of the T7 promoter (PT7), producing pill and allowing the SP to reproduce (FIGS. 2A and 2B).
We used the SICLOPPS method to biosynthesize cyclic peptides that can be selected in E. coli.^15 In SICLOPPS, a precursor fusion consisting of the C-terminal half of the Ssp DnaE split intein, the peptide sequence to be cyclized, and the N-terminal half of the same split intein undergoes intein splicing after translation to produce head-to-tail cyclized peptides (FIG. 7).
Strain S206035 was used for plasmid cloning, amplification, and phage assays. Strain S220835 was used for SP cloning and plaque assays. Plasmids and SPs were cloned by USER assembly or blunt-end ligation. Competent cells were prepared and transformed using the TSS method. Phage propagation and plaque assays were performed as previously described.^54 Unless otherwise noted, phage propagation assays used an input of […] phage to infect a 2 mL culture of host cells.

Chain of Aβ42-T7n (P05067+P00573 fused): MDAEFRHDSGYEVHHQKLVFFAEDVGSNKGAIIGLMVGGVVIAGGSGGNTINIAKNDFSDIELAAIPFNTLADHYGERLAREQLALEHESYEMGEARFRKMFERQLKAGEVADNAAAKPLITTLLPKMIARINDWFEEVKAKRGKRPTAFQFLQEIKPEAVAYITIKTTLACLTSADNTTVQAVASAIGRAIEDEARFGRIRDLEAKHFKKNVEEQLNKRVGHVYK

With “CHVVGVI (cyclised; Circular) [cyclo-CHVVGVI]” the “phage propagation activity (fitness) on Aβ42-T7n selection” value was “propagated robustly”.

From US20250122242A1, “SELECTION SYSTEMS, PEPTIDES DETERMINED THEREWITH, AND METHODS OF USING SAME” (Wisconsin Alumni Research Foundation, priority 2023, published 2025)
